# Columns and labels:
# [1] = target: native VEGFR-1 expressed on the cell surface (human) (UniProt P17948); assay: flow cytometry on PAE-VEGFR-1 cells, FITC goat anti-human IgG
# [2] = target: human VEGFR-2 alkaline phosphatase (human) (UniProt P35968); assay: ELISA: antibody dilutions on plate coated with 1 µg/ml human VEGFR-2 alkaline phosphatase, HRP secondary, O.D. 450
# [3] = target: human VEGFR-2 alkaline phosphatase (human) (UniProt P35968); assay: ELISA: plate coated with huVEGFR-2-AP 100 ng/well, goat anti-human kappa-HRP, O.D. 450
# [4] = target: mouse VEGFR-1 Fc (mouse) (UniProt P35969); assay: ELISA: antibody dilutions on plate coated with 1 µg/ml mouse VEGFR-1 Fc, HRP secondary, O.D. 450
# [5] = target: mouse VEGFR-1-AP (mouse) (UniProt P35969); assay: ELISA: plate coated with mouse VEGFR-1-AP 100 ng/well, goat anti-rat IgG-HRP, O.D. 450
# mouse VEGFR-1-AP (mouse), sequence (P35969 23-759): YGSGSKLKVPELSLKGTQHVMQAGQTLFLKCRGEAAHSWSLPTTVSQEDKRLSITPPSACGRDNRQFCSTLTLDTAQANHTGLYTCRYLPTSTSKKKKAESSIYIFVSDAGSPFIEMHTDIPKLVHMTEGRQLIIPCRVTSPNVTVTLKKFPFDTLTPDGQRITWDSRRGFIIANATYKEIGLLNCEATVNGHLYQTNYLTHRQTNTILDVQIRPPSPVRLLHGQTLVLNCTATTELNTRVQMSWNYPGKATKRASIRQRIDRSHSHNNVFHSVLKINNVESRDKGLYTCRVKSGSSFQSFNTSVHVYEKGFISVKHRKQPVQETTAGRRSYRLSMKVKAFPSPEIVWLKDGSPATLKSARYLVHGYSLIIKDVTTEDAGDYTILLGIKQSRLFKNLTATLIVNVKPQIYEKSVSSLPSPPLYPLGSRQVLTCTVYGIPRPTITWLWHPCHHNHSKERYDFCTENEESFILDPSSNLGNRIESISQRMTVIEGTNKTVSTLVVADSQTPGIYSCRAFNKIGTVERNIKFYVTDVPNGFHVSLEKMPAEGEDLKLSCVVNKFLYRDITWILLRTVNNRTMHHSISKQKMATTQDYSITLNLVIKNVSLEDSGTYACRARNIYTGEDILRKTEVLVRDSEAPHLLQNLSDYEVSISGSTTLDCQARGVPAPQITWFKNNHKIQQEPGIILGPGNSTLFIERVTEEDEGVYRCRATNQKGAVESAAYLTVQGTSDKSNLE
# human VEGFR-2 alkaline phosphatase (human), sequence (P35968 20-764): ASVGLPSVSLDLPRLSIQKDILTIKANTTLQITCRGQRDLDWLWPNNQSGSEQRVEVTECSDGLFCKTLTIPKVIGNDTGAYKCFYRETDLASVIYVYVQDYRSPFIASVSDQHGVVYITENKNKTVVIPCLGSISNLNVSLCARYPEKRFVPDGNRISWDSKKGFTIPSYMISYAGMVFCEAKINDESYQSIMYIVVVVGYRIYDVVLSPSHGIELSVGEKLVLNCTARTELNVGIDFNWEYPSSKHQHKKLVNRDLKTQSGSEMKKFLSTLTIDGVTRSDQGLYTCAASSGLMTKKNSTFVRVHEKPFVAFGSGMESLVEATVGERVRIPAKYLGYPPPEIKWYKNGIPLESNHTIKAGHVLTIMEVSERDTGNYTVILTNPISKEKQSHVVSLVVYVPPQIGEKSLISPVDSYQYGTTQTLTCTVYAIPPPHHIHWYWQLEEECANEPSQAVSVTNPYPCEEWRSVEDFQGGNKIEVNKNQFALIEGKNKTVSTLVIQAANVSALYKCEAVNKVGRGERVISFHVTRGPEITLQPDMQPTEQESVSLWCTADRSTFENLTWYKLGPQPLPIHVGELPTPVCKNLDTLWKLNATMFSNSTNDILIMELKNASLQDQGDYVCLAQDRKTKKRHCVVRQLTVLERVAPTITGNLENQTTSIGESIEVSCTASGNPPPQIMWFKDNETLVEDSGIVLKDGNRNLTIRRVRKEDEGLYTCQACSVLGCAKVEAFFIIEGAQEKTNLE
# native VEGFR-1 expressed on the cell surface (human), sequence (P17948 27-1338): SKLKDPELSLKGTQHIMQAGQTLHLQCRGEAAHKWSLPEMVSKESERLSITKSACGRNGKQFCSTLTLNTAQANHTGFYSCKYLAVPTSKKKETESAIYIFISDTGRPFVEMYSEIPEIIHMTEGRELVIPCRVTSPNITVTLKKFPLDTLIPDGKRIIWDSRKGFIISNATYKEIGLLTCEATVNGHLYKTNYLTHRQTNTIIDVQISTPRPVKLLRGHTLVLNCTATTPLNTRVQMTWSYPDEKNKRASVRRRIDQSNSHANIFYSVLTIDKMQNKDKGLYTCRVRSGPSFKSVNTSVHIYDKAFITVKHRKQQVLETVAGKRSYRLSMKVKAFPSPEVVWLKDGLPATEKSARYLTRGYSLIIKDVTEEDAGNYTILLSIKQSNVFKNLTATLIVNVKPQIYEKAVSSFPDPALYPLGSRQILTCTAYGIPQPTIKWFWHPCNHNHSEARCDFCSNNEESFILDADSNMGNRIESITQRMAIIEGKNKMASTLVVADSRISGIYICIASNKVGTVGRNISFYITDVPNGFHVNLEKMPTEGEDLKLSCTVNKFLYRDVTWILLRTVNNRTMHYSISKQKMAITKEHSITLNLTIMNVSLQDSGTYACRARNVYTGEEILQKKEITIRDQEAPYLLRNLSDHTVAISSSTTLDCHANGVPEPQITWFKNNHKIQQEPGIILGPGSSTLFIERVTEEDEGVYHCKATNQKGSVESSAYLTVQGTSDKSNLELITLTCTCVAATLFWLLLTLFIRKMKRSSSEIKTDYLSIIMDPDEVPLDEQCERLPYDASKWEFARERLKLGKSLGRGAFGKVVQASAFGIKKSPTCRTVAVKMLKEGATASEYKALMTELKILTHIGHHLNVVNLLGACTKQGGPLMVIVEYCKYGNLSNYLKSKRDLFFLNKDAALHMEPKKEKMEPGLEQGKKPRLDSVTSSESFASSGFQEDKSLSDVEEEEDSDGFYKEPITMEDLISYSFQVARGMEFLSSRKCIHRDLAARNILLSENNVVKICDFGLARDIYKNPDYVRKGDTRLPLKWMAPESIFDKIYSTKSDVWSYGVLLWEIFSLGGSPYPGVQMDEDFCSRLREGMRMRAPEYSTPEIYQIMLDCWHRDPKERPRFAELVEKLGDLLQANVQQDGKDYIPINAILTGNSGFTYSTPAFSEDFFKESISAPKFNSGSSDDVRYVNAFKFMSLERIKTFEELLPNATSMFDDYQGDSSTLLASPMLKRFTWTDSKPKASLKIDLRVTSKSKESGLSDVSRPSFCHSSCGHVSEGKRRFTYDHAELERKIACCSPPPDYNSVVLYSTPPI
# mouse VEGFR-1 Fc (mouse), sequence (P35969 23-759 limits assumed): as the sequence (P35969 23-759) above
substance,measurement,setting,value
Control IgG (antibody),MFI,[1],2.6
1C11 (antibody),EC50 (read off the curve),[2],8 ng/mL
same,EC50 (read off the curve),[3],8 ng/mL
rat anti-mouse VEGFR-1 antibody MF1,EC50 (read off the curve),[4],0.8 ng/mL
same,EC50 (read off the curve),[5],0.8 ng/mL
